Experimental data published in US20030068675, “Position dependent recognition of GNN nucleotide triplets by zinc fingers” (published 2003).
Positions count from the first letter of the chain named.

Legend:
Test in all cases: EMSA
Conditions in all cases: tags: MBP fusion
[1] = biological target: T1, ZFP SBS#1099 (synthetic)
T1 chain: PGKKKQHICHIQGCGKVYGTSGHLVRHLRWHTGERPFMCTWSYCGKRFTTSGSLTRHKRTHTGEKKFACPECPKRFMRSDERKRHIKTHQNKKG
Outline: (§1)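 Purified ZFP was titrated against labeled double-stranded target (1 nM or lower, at least 10-fold below expected Kd) carrying the natural binding site with flanks. Binding buffer was 10 mM Tris pH 7.5, 100 mM KCl, 1 mM MgCl2, 0.1 mM ZnCl2, 5 mM DTT, 10% glycerol, 0.02% BSA, with equilibration for at least 45 min. Bound and free target were separated on a 10% polyacrylamide gel.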

[2] = biological target: ZFP SBS#1093 (synthetic)
Outline: as §1

[3] = biological target: T2, ZFP SBS#1171 (synthetic)
T2 chain: T1 chain with T20R, G22D, H23D, V25R, R26T, T50R, G52D, S53N, T55A
Outline: as §1

[4] = biological target: T3, ZFP SBS#1091 (synthetic)
T3 chain: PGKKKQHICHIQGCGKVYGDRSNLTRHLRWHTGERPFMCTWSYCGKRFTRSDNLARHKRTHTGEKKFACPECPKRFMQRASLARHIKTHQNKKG
Outline: as §1

[5] = biological target: T4, ZFP SBS#1169 (synthetic)
T4 chain: T3 chain with R79S, A80S, A83V
Outline: as §1

[6] = biological target: T5, ZFP SBS#1178 (synthetic)
T5 chain: T3 chain with N23H, T25A, R50T, D52G, A55V, Q78R, R79S, A80D, S81N
Outline: as §1

[7] = biological target: T6, ZFP SBS#1163 (synthetic)
T6 chain: T1 chain with T20E, S21R, H23D, V25T, T50Q, S53H, R56T, E81A, R82L, K83T
Outline: as §1

[8] = biological target: T7, ZFP SBS#1164 (synthetic)
T7 chain: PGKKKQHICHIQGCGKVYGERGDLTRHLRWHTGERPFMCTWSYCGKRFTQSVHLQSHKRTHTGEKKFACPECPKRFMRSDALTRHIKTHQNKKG
Outline: as §1

[9] = biological target: T8, ZFP SBS#1181 (synthetic)
T8 chain: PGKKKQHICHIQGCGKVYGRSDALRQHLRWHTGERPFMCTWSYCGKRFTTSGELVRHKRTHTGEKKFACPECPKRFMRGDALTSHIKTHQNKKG
Outline: as §1

[10] = biological target: T9, ZFP SBS#1126 (synthetic)
T9 chain: T8 chain with R25T, Q26S
Outline: as §1

[11] = biological target: T10, ZFP SBS#1161 (synthetic)
T10 chain: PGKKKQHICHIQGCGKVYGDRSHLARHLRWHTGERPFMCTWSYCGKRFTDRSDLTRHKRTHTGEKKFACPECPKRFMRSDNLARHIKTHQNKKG
Outline: as §1

[12] = biological target: T11, ZFP SBS#1090 (synthetic, UniProt P08047)
T11 chain: T8 chain with Q26E, T50R, G52D, V55Q, G79S, A81N, S84Q
Outline: as §1

[13] = biological target: ZFP SBS#1168 (synthetic)
Outline: as §1

[14] = biological target: ZFP SBS#1167 (synthetic)
Outline: as §1

[15] = biological target: ZFP SBS#1165 (synthetic)
Outline: as §1

[16] = biological target: ZFP SBS#1166 (synthetic)
Outline: as §1

[17] = biological target: T12, ZFP SBS#1160 (synthetic)
T12 chain: T10 chain with D50Q, R51S, D53N, T55V, N81H, A83T, R84T
Outline: as §1

[18] = biological target: T13, ZFP SBS#1172 (synthetic)
T13 chain: T3 chain with D20R, R21S, S22D, N53H, A55T, Q78E, A80G, S81D, A83T
Outline: as §1

[19] = biological target: ZFP SBS#1098 (synthetic)
Outline: as §1

[20] = biological target: T14, ZFP SBS#1170 (synthetic)
T14 chain: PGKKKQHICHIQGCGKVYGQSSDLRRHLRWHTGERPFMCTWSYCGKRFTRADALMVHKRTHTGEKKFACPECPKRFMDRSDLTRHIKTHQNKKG
Outline: as §1

[21] = biological target: T15, ZFP SBS#1092 (synthetic)
T15 chain: T14 chain with A51G, M55T, V56S
Outline: as §1

[22] = biological target: ZFP SBS#477 (synthetic)
Outline: as §1

[23] = biological target: ZFP SBS#476 (synthetic, UniProt P08047)
Outline: as §1

[24] = biological target: ZFP SBS#478 (synthetic, UniProt P08047)
Outline: as §1

[25] = biological target: T16, ZFP SBS#1159 (synthetic)
T16 chain: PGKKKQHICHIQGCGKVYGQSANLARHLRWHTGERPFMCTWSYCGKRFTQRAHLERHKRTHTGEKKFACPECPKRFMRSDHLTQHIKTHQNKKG
Outline: as §1

[26] = biological target: ZFP SBS#1158 (synthetic)
Outline: as §1

[27] = biological target: ZFP SBS#1173 (synthetic)
Outline: as §1

[28] = biological target: ZFP SBS#1174 (synthetic)
Outline: as §1

[29] = biological target: T17, ZFP SBS#1183 (synthetic)
T17 chain: T10 chain with D50Q, R51S, D53N, T55V, A83R, R84E
Outline: as §1

[30] = biological target: ZFP SBS#1182 (synthetic)
Outline: as §1

[31] = biological target: T18, ZFP SBS#1131 (synthetic)
T18 chain: T7 chain with S51R, V52A, Q55E, S56R
Outline: as §1

[32] = biological target: ZFP SBS#1176 (synthetic)
Outline: as §1

[33] = biological target: T19, ZFP SBS#1177 (synthetic)
T19 chain: T16 chain with A22G, N23S, A25T, Q50D, A52S, E55A, H81T, T83R, Q84E
Outline: as §1

[34] = biological target: ZFP SBS#1175 (synthetic)
Outline: as §1

[35] = biological target: T20, ZFP SBS#1128 (synthetic)
T20 chain: T7 chain with Q50D, S51P, V52G, H53A, Q55V, S56R, A81N, R84Q
Outline: as §1

[36] = biological target: T21, ZFP SBS#1162 (synthetic)
T21 chain: T14 chain with S22G, D23A, R25T, D78R, R79S, S80D, D81A
Outline: as §1

[37] = biological target: T22, ZFP SBS#1100 (synthetic)
T22 chain: T7 chain with E20Q, R21S, D23A, Q50R, S51G, V52D, H53A, Q55T
Outline: as §1

B1: GCGGAGTCG (dsDNA)
DNA 1: GCGGAGTCG
DNA 2: CGACTCCGC
In the case of B1, the Kd [1] is reported as 0.45 nM, the Kd [2] is reported as 0.046 nM and the Kd [3] is reported as 0.18 nM.

B2: GTAGAGGAC (dsDNA)
DNA 1: GTAGAGGAC
DNA 2: GTCCTCTAC
Binder B2 has a Kd [4] of 0.085 nM and a Kd [5] of 0.053 nM.

B3: GAGGATGGC (dsDNA)
DNA 1: GAGGATGGC
DNA 2: GCCATCCTC
B3 gave a Kd [6] of 0.085 nM.

B4: GTGTGAGCC (dsDNA)
DNA 1: GTGTGAGCC
DNA 2: GGCTCACAC
B4 was tested, and the Kd [7] was 1.45 nM and the Kd [8] was 15.4 nM.

B5: TTGGCTATG (dsDNA)
DNA 1: TTGGCTATG
DNA 2: CATAGCCAA
B5 was tested, and the Kd [9] was 8.2 nM and the Kd [10] was 0.46 nM.

B6: GAGGCCGGC (dsDNA)
DNA 1: GAGGCCGGC
DNA 2: GCCGGCCTC
B6 showed a Kd [11] of 0.45 nM.

B7: AAGGCGCTG (dsDNA)
DNA 1: AAGGCGCTG
DNA 2: CAGCGCCTT
In the case of B7, the Kd [12] is reported as 30.3 nM and the Kd [13] is reported as 2.8 nM.

B8: GCGAAGGTG (dsDNA)
DNA 1: GCGAAGGTG
DNA 2: CACCTTCGC
B8 gave a Kd [14] of 0.95 nM, a Kd [15] of 1.4 nM and a Kd [16] of 0.195 nM.

B9: TGGGAAGGC (dsDNA)
DNA 1: TGGGAAGGC
DNA 2: GCCTTCCCA
Work on B9 yielded a Kd [17] of 0.415 nM.

B10: GCCGGGGAG (dsDNA)
DNA 1: GCCGGGGAG
DNA 2: CTCCCCGGC
B10 gave a Kd [18] of 0.01 nM and a Kd [19] of 0.055 nM.

B11: GCCTTGGCT (dsDNA)
DNA 1: GCCTTGGCT
DNA 2: AGCCAAGGC
Binder B11 has a Kd [20] of 2.75 nM and a Kd [21] of 2.73 nM.

B12: GGAGAGGATG (dsDNA)
DNA 1: GGAGAGGATG
DNA 2: CATCCTCTCC
For B12, the Kd [22] was 100 nM, the Kd [23] was 80 nM and the Kd [24] was 60 nM.

B13: AGGGGAGAA (dsDNA)
DNA 1: AGGGGAGAA
DNA 2: TTCTCCCCT
B13 showed a Kd [25] of 0.555 nM and a Kd [26] of 0.1 nM.

B14: GCTGAAGGG (dsDNA)
DNA 1: GCTGAAGGG
DNA 2: CCCTTCAGC
B14 gave a Kd [27] of 0.008 nM and a Kd [28] of 0.018 nM.

B15: CAGGAAGGC (dsDNA)
DNA 1: CAGGAAGGC
DNA 2: GCCTTCCTG
B15 gave a Kd [29] of 1.94 nM and a Kd [30] of 1.48 nM.

B16: GTGGGAGCC (dsDNA)
DNA 1: GTGGGAGCC
DNA 2: GGCTCCCAC
B16 was tested, and the Kd [31] was 0.95 nM and the Kd [32] was 4.1 nM.

B17: CCGGGCGCA (dsDNA)
DNA 1: CCGGGCGCA
DNA 2: TGCGCCCGG
B17 gave a Kd [33] of 4.1 nM.

B18: AAGGTCGCC (dsDNA)
DNA 1: AAGGTCGCC
DNA 2: GGCGACCTT
Binder B18 has a Kd [34] of 8.9 nM and a Kd [35] of 5.45 nM.

B19: GTGTTGGTA (dsDNA)
DNA 1: GTGTTGGTA
DNA 2: TACCAACAC
B19 was tested, and the Kd [36] was 0.465 nM and the Kd [37] was 1.4 nM.
